Source: patent publication US20210046160A1 (Synthorx, Inc., priority 2019, published 2021)

What was measured:
[1] = target: T1, IL-2 receptor βγ complex (IL-2Rβ and IL-2Rγ subunits) (Homo sapiens, UniProt P14784+P31785); assay: PathHunter IL-2 Cytokine Receptor assay, agonist mode, βγ cell line; type: cell-based; conditions: ratio of the EC50 values
T1 construct: host or cells: recombinant human U2OS cell line (PathHunter)
T1 sequence (P14784 27-551): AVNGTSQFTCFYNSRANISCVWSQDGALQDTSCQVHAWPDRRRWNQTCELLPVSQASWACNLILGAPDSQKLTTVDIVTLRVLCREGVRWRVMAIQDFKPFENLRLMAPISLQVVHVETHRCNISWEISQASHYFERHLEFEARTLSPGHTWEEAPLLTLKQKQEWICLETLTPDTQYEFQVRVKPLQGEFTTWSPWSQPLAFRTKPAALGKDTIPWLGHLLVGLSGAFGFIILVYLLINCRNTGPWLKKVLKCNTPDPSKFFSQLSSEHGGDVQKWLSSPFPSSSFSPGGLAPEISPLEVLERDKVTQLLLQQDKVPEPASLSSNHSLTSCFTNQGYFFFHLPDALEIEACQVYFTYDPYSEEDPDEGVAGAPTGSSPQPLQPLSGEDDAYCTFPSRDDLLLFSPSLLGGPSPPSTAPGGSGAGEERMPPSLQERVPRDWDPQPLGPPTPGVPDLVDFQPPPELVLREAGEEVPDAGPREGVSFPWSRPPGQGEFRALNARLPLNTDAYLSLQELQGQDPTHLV
T1 sequence (P31785 23-369): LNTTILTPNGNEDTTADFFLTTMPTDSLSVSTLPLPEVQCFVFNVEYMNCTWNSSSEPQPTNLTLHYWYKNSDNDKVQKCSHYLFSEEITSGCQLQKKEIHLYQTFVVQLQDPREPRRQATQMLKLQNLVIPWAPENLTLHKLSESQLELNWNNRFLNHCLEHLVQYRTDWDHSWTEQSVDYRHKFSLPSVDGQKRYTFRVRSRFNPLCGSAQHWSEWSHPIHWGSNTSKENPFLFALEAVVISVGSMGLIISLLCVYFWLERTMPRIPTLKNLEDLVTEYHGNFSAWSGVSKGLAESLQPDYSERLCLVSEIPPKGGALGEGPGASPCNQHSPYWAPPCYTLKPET
Method: PathHunter cell lines were expanded from freezer stocks according to standard procedures. Cells were seeded in a total volume of 20 μL into white walled, 384-well microplates and incubated for the appropriate time prior to testing.
For agonist determination, cells were incubated with sample to induce response. Intermediate dilution of sample stocks was performed to generate 5× sample in assay buffer. About 5 μL of 5× sample was added to cells and incubated at 37° C. for 6 to 16 hours depending on the assay. Vehicle concentration was 1%.
Assay signal was generated through a single addition of 12.5 or 15 μL (50% v/v) of PathHunter Detection reagent cocktail for agonist and antagonist assays respectively, followed by a one hour incubation at room temperature. For some assays, activity was detected using a high sensitivity detection reagent (PathHunter Flash Kit) to improve assay performance. In these assays, an equal volume of detection reagent (25 or 30 μL) was added to the wells, followed by a one hour incubation at room temperature. Microplates were read following signal generation with a PerkinElmer Envision™ instrument for chemiluminescent signal detection.
Compound activity was analyzed using CBIS data analysis suite (ChemInnovation, CA). For agonist mode assays, percentage activity was calculated using the following Formula:
% Activity=100%×(mean RLU of test sample−mean RLU of vehicle control)/(mean MAX RLU control ligand−mean RLU of vehicle control).
A second cell line has been further engineered to express the IL-2Rα subunit. […] The assay was run in agonist mode to determine the EC50 of each test article, and comparison of dose-response curve profiles between IL2Rα positive and negative cell types allows determination of the contribution of IL2Rα to the observed activity.

CTLL-2 = CTLL-2 proliferation; type: cell-based; conditions: Table 4
[2] = PK study E3826-U1704 in naïve C57BL/6 mice (human IL-2 ELISA of plasma); type: in vivo
Method: (§1) Terminal blood samples were collected via cardiac puncture at the points indicated. […] Plasma and blood cells (in both studies) and tumors in study E3826-U1803 were collected for PK and PD analyses.
(§2) Bioanalysis of plasma samples was performed using a qualified human IL-2 ELISA assay (Abcam, Cambridge, UK). Concentrations of Aldesleukin, E62_30kD and P65_30kD and the internal standard in samples derived from plasma were determined using an ELISA assay. […] The PK data were imported into Phoenix WinNonlin v6.4 (Certara/Pharsight, Princeton, N.J.) for analysis. The group mean plasma concentration versus time data were analyzed with noncompartmental methods using an IV bolus administration model.

[3] = test system: pSTAT5 and proliferation in CD8+ T, NK and Treg cells; assay: Pharmacodynamics in peripheral blood compartment (pSTAT5, Ki-67, cell counts), Example 5; type: in vivo, C57BL/6 mice; conditions: mice
Excerpt: as §1
STAT5 phosphorylation and induction of cell proliferation (the early molecular marker Ki-67 and cell counts) was used as pharmacodynamics readouts to assess the pharmacological profile of P65_30kD relative to its pharmacokinetics.

[4] = Plasma and tumor PK study E3826-U1803 in B16-F10 tumor-bearing C57BL/6 mice; type: in vivo
Method: as §1, §2
The tail end of the curves cross showing the plasma eliminates faster than the tumor (data not shown).

[5] = MTD / toxicology study E3826-U1802 in naïve Balb/c mice (hematology, histopathology, organ weight, cytokines); type: in vivo; conditions: mouse, in vivo
Method: A dose ranging study of P65_30kD was conducted in naïve female Balb/c mice at Crown Biosciences, Inc. (San Diego, Calif.). […] Blood samples were drawn via sub mandibular vein at 8 time points (0.25, 1, 4, 12, 24, 34, 48 & 72 h).
A major of toxicity associated with high-dose aldesleukin is vascular leak syndrome and associated Cytokine Release Syndrome (CRS). […] The analysis performed was hematology, histopathology, organ weight, and cytokine analyses.

[6] = C57BL/6 female mice, single IV bolus 0.3 mg/kg, E62_5 kD from a separate study
[7] = B16-F10 tumor-bearing C57BL/6 female mice, 3 mg/kg single IV dose

In the case of “P65_30kD: SEQ ID NO: 25: IL-2 (SEQ ID NO: 4) with P65 replaced by AzK click-conjugated to methoxy linear 30 kDa PEG [Compound P65_30kD]”, the βγ/αβγ ratio [1] is reported as 5, the “EC50, CTLL-2 proliferation” value (CTLL-2) is reported as 677,198 pg/mL and the “fold extended t1/2 compared to aldesleukin” value ([2]; 0.3 mg/kg IV) is reported as 23 fold. For the same substance, the “fold reduced CL compared to aldesleukin” value ([2]; 0.3 mg/kg IV) was “about 198 fold”, the AUC0-t [2, 6] was 45,600 h*ng/mL and the AUCINF [2, 6] was 45,600 h*ng/mL. For the same substance, the CL [2, 6] was 0.11 mL/min/kg, the Cmax [2, 6] was 4,870 ng/mL and the Tmax [2, 6] was 1.8 min. The “Vss (distribution volume)” value [2, 6] was 0.0824 L/kg, the t½ [2, 6] was 13.3 h and the “mean plasma concentrations measurable out to (post-dose)” value ([2]; single IV bolus, 120 h = last measured time point) was 120 h. The “proliferative responses of CD8+ effector T cells and NK cells (not Tregs), time window” value [3] was 72 to 120 h, the “persistent elevation of pSTAT5 in NK and CD8+ T cells, up to” value ([3]; single IV dose) was “up to 72 h” and the “persistent elevation of pSTAT5 in Tregs, up to” value ([3]; single IV dose) was “up to 24 h”. The “tumor:plasma AUC ratio” value ([4]; 1 mg/kg dose) was 9.7%, the “tumor:plasma AUC ratio” value ([4]; 3 mg/kg dose) was 8.4% and the “AUC0-t, Plasma” value [4, 7] was 656,000 h*ng/mL. For the same substance, the “AUC0-t, Tumor” value [4, 7] was 55200 ng·h/mL, the “AUCINF, Plasma” value [4, 7] was 656,000 h*ng/mL and the “AUCINF, Tumor” value [4, 7] was 55200 ng·h/mL. For the same substance, the “Cmax, Plasma” value [4, 7] was 40000 ng/mL, the “Cmax, Tumor” value [4, 7] was 1550 ng/mL and the “Tmax, Plasma” value [4, 7] was “*2.00 h”. For the same substance, the “Tmax, Tumor” value [4, 7] was 8 h, the “t½, Plasma” value [4, 7] was 12.6 h and the “t½, Tumor” value [4, 7] was 24.4 h. The “systemic levels of IFNγ” value [5] was “transient elevation”.
